The nanobody polyreactivity screen of Harvey et al. (2022)

Experiment: yeast display, Sf9 membrane polyspecificity reagent, FACS + sequencing; frameworks hold sequencing errors
How it was run: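 Nanobodies came from a synthetic yeast display library in Saccharomyces cerevisiae BJ5465, induced with galactose for 36–48 hours and stained for 1 hour at 4 °C with 10% biotinylated, detergent-solubilized Sf9 membrane reagent. Cells were enriched on streptavidin microbeads and then FACS-sorted, with low and high (top ~1%) gates set on anti-HA fluorescence for expression and streptavidin fluorescence for reagent binding. Each polyreactivity label reflects the gate a clone came from. Genes were amplified by colony PCR, sequenced by MiSeq 2 × 250 and filtered by CDR length.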

QVQLVESGGGLVQAGGSLRLSCAASGRISYNNAMGWYRQAPGKERELVAAITKNGGRTYYADSVKGRFTISRDNAKNTVYLQMNSLKPEDTAVYYCAVRSYYYGYDYWGQGTQVTVSS
polyreactivity (PSR sort gate): high polyreactivity

QVQLVESGGGLVQAGGSLRLSCAASGSIFYTYAMGWYRQAPGKERELVAAITYRVGSTYYADSVKGRFTISRDNAKNTVYLQMNSLKPEDTAVYYCNADKGGHVRHYDYWGQGTQVTVSS
polyreactivity (PSR sort gate): low polyreactivity

QVQLVESGGGLVQAGGSLRLSCAASGLIFSYNAMGWYRQAHGKETELVATIRRVGSTNYADSVKGRFTISRDNAKNTVYLQMNSLQPDDTAVYYCAAVYVRIGTRYGYWGQGTQVTVSS
polyreactivity (PSR sort gate): high polyreactivity

QVQLVESGGGLVQAGGSHRLSCAASGRIFGCYTMGWYRQAPAKERELVAGITRRGGRTYYADSVKGRFTISRDTAKYTVYLQMNSLKPEDTAVYYCAVRSGVNFYYWGHGTQVTVSS
polyreactivity (PSR sort gate): high polyreactivity

QVQLVESCGGLVQAGGSLRLSCAASGSIFSRNTMGWYRQAPCKERELVAGISSSGSRTYYADSVKGRFTISRDNSKNTVYLQMNSLKPEYTAVYYCAAEHQRSRGRRYYIGYDYWGQGTQVTVSS
polyreactivity (PSR sort gate): low polyreactivity

QVQLVESGGGLVQAGGSLRLSCAASGSIFGGYAMGWYRQAPGKERELVAAITSGGGSTYYADSVKGRFTISRDNAKNTVYLQMNSLKPEDTAVYYCAALQSHGVDYDYWGQGTQVTVSS
polyreactivity (PSR sort gate): low polyreactivity

QVQLVESGGGLFQAGGSLRLSCAASGRTFDVYDMGWYRQAPGKERELVAAITWSGGSTYYADSVKGRFTISRDNAKNTVYLQMNSLKPEDTAVYYCAAGYYYFWTYDYWGQGTQVTVSS
polyreactivity (PSR sort gate): low polyreactivity

QVQLVESGGGLVQAGGSLRLSCAASGRTIYYNAIGRYIQAPVKEREFVATITCSGGSTYADSVKGRFTISRDNAKNTVYLQMNSLKPEDTAVYYCNADFSYTSEDQRALFTNVYYWGQGTQVTVSS
polyreactivity (PSR sort gate): low polyreactivity

QVQLVESGGGLVQAGGSLRLSCAASGTIFDAYAMGWYRQAPGKERELVAAISLDDGSTYYADSVKGRFTISRDNAKNTVYLQMNSLKPEDTAVYYCAADYYVRSQHLYATSGNYWGQGTQVTVSS
polyreactivity (PSR sort gate): high polyreactivity

QVQLVESGGGLVQAGGSLRLSCAASGSTIFGNVMGWYRQAPGKERELVAVITNRGGSTYYADSVKGRFTISRDNAKNTVYLQMNSLKPEDTAVYYCATRSRPRSYYYWGQGTQVTVSS
polyreactivity (PSR sort gate): high polyreactivity

QVQLVESGGGLVQAGGSLRLSCAASGIIFAYYAMGWYRQAPGKERELVAAITSGGSTHYADSVKGRFTISRDNAKNTVYLKMNSLKPEDTAVYYCAADVSYYASLFDYGGQGTQVTVSS
polyreactivity (PSR sort gate): low polyreactivity

QVQLVESGGGLVKAGGSLRLSCAASGITFWRYTMGWYRQAPGIERELVAAITSRGGNTYYADSVKGRFTISRDNAKNTVYLQLNSLKPEDTAVNYCNADRYNKYWYDYWGQGTQVTVSS
polyreactivity (PSR sort gate): high polyreactivity

QVQLVESGGGLVQAGGSLRLSCAASGSTFDDYAMVWYRQAPGKDREFVAAISFSGDSTYYADSVKGRFTISRDNAKNTVYLQMNRLKPEDTAVYYCAAEVPAEENGYAYDYWGQGTQVTVSS
polyreactivity (PSR sort gate): low polyreactivity

QVQLVESGGGLVQAGGSLRLSCAASGSTFSIYARGWYRPAPGKERELVAAIRWSGGRTYYADSVKGRFTISRDNAKNTVYLQMNSLKPEDTAVYYCAAESTGSGYDYWGQGTQVTVSS
polyreactivity (PSR sort gate): high polyreactivity

QVQLVESGGGLVQAGGSLRLSCAASGFTFEKYAMGWYRQAPGKERELVAAITQSAGSTYADSVKGRFTISRDNAKNTVYLQMNSLKPVDTAVYYCAARYRYPYYARYGYWGQGTQVTVSS
polyreactivity (PSR sort gate): high polyreactivity

QVQLVESGGGLVQAGGSLRLSCAASGSIFSPNAMGWYRQAPGKERELVATISFSGGRTYYADSVKGRFTISRDNAKNTVYLQMNSLKPEDTAVYYCAKAYYYTDMDYWGQGTQVTVSS
polyreactivity (PSR sort gate): low polyreactivity

QVQLVESGGGLVQAGGSLRLSCAASGFTFYYYAMGWYRQAPGKERELVAAIDTSDGSTYYADSVKGRFTISRDNAKNTVYLQMNSLKPEDTAVYYCAAEVDCVPFLLDYWGQGTQVTVSS
polyreactivity (PSR sort gate): low polyreactivity

QVQLVESGGGLVQAGGSLRLSCAASGRIFHQYAIGWSRPAPGKERELVAAISSGGGSTYYADSVKGRFTISRDNAKNTVYLQMNSLKPEDNAVYYCAAVYDYDRGVNYWGQGTQVTVSS
polyreactivity (PSR sort gate): high polyreactivity

QVQLVESGGGLVQAGGSLRLSCAASGFTFRKYVMGWYRQAPGKERELVAGISRSGSRTYYADSVKGRFTISRDNAKNTVYLQMNSLKPEDTAVYYCAASRYGKNGKYHYWGQGTQVTVSS
polyreactivity (PSR sort gate): high polyreactivity

QVQLEESGGGLVQAGGSLRLSCAASGFIFSWYVMGWYRQAPGKERELVAAISQSGGDTYYADSVKGRFTISRDNAKNTVYLQMNSLKPEDTAVYYCAVGRVGRFYYWGQGTQVTVSS
polyreactivity (PSR sort gate): high polyreactivity

QVQLVESGGGLVQAGVSLRLSSAASGSTFLYYAMGWYRQAPGKESEMVAAIDWSDTSTYFADSVKGRFTISRDIAKNTVYLQMNSLKTEDTAVYYCIREATYVYAAGYDYWGQGTQVTVSS
polyreactivity (PSR sort gate): low polyreactivity

QVQLVESGGGLVQAGGSLRLSCAASGSIFRRYAMGWYRQAPGKERELVAAIDSSGGTSYADSVKGRFTISRDNAKNTVYLQMNILKPEDTAVYYCATSFSWKGRKYGYWGQGTQVTVSS
polyreactivity (PSR sort gate): high polyreactivity

QVQLEESGGGLDQAGGSLRLSCAASARTFDGYAMGWYRQAPGKERELVAAISSGDSTYYADSVKGRFTISRDKAKNTVYLQMNSLKPEDTAVYYCAASFYYSSYGYWGQGTQVTVSS
polyreactivity (PSR sort gate): low polyreactivity

QVQLVESGGGLVQAGGSLRLSSDASGFIIANNALGWYRQAPVKERELVAAISRSGGRTYYADSVKGRFTISRDNGKKTVYLQMNSLKTEDTAVYYCVADRTDTSNYWGQGTQVTVSS
polyreactivity (PSR sort gate): high polyreactivity

QDQLVESGGGLVQAGGRLRLSCAASGRTFSSYAMGWYRQAPGKERELVAAISRRGSSTFYADSVKGRFTISRDNAKNTVYLQMNSLKPEDTAVYYCNADLSGQTRYDYWVQGTQVTVSS
polyreactivity (PSR sort gate): high polyreactivity

QVQLVESGGGLVQAGGSLRLSCAASGRTSAKYAMGWYRQAPGKERELVAVITKNSGSTYYADSVKGRFTISRDNAKNTVYLQMNSLKPEDTAVYYCNRVPRGINRQSRPEDYWGQGTQVTVSS
polyreactivity (PSR sort gate): high polyreactivity

QVQLVESGGGLVQAGGSLRLSCAASGRTFFGYARGWYRQAPGKEREFVARISWRGTSTTYADSVKGRFTISRDNAKNTVYLEMNSLKPEDTAVYYCAASPYGLRVYFTVGYWGQGTQVTVSS
polyreactivity (PSR sort gate): high polyreactivity

QLQLQESGGGLVQAGGSLRLSCAESGTIFGWDRMGRYRQAPGKERELVATIDNRGSTNYADSVKGRFTISRDNAKNTLFPQMNSLKPDDTEVYYCAVVGPTPQYHLYWGEGTQVTVSS
polyreactivity (PSR sort gate): high polyreactivity

QVQIVESGGGLVQAGGSLRLSCAASGLTFILYAMGWYRQAPGKERELVAAISYDGGSTYYADSVKGRFTISRDNAKNTVYLQMNSLKPEDTAVYYCAADSYYYQGYRRYNYDYWGQGTQVTVSS
polyreactivity (PSR sort gate): high polyreactivity

QVQLVESGGGLVQAGGSLRLSCAASGSTFGWYAMGWYRQAPGKERELVAAISTSGNTYYADSVKGRFTISRDNAKNTVYLQMNSLKPEDTAVYYCAKYVNPDHDYWGQGTQVTVSS
polyreactivity (PSR sort gate): low polyreactivity

QVQLVESGGGLVQAGGSLRLSCAASGSTFYYYAMGRYRQAPGKEMELVATISRGGSTNYADSVKGRFTISRDNAKNTVYLQMNSLKPEDTAVYYCAIGYLRPYGSHRESTPYDYWGEGTQVTVSS
polyreactivity (PSR sort gate): low polyreactivity

QVQLVESGGGLVQAGGSLRLSCAASGSTLGYYAMGWYRQAPGKERELVAAISKGGGSTYYADSVKGRFTISRDNAKNTVYLQMNSLKPEETAVYYCAAYSTSWSRYDYWGQGTQVTVSS
polyreactivity (PSR sort gate): high polyreactivity

QVQLVESGGGLVQAGGSLRLSCAASGSTLSLYAMGWSRQAPGKERELVAAITSSGGTYYADSVKGRFTISRDNAKNTVYLQMNSLKPEDTADYYCARSRYRAQGKFDYWGQGTQVTVSS
polyreactivity (PSR sort gate): high polyreactivity

QVQLVESAGGLVQAGGSLRLSCAASGSTLYPYDMGWYRQAPGKERELVAAIDSGGSTNYADSVKGRFTISRDNAKNTVYLQMNSLKPEDTAVYYCAADASGENDYWGQGTQVTVSS
polyreactivity (PSR sort gate): low polyreactivity

QDQLVESGGGLVQAGGSLRLSCAASGRTFYKYAMGWYRQAPGKERELVAAIRTGGGTSYADSVKGRFTISRDNAKNTVYLQMNSLKPEDTAVYYCNARGVYFWWRLDYWGQGTQVTVSS
polyreactivity (PSR sort gate): low polyreactivity

QVQLVESGGGLVQAGGSLRLSCAASGSTFWYNDMGWYRQAPGKESELVAAITWTGDGTYYADTVKGRFTISRDNAKNTVYLQMNSLKPEDTAVYYCAAAYFQWSTSIVGLDAWYDYWGQGTQVTVSS
polyreactivity (PSR sort gate): low polyreactivity

QVQLVESGGGLVQAGGSLRLICAASGSIFTPNALGWYRPAPGKERELVAAISSSSDRTYYADSVKGRFTISRDNAKNSVFLLMNSLKPEDTAVYYCAAYAQKRYYWGQGTQVTVSS
polyreactivity (PSR sort gate): high polyreactivity

QVQLVESGGGLVHAGGSLRLSCPASGRIFPHYAMGWYRQAPGKEREMVAAISGRGGNTYYADSVKGRFTISRDNAKNTVYLQMNSLKPEDTAVYYCAADVSWRPSWGYDYWGQGTQVTVSS
polyreactivity (PSR sort gate): high polyreactivity

QVQLVESGGGLVQAGGSLRLSCAASGYIFFRNAMGWYRQAPGKEREFVAAIRFSGGNTYYADSVKGRFTISRDNAKNTVYLQMNSLKPEDTAFYYCAADKVRQGHYWTPMEYWGQGTQVTVSS
polyreactivity (PSR sort gate): low polyreactivity

QVQLVESGGGLVQAGGSLRLSCAASGSTFLSYAMGWYRQAPGKERELVAAITGSGGSTYYADSVKGRFTISRDNAKNTVYLQMNSLKPEDTAVYYCATDLWRWYGWFDYWGQGTQVTVSS
polyreactivity (PSR sort gate): low polyreactivity

QVQLVESGGGLVQAGGSLRLSCAASGRTFVYYAMGWYRQAPGKEREFVATITSSGGSTYYADSVKGRFTISRDNAKNTVYLQMNSLKPEDTAVYYCAASPYIRYSKVSKYYYWGQGTQVTVSS
polyreactivity (PSR sort gate): high polyreactivity

QVQLVESGGGLVQAGGSLRLSCAASGFTLSAYAMGWYRQAPGKERELVAGISYTGGRTYYADSVKGRFTISRDNAKNTVYLQMNSLKPEDTAVYYCNKAWSGYYKYGYWGQGTQVNVSS
polyreactivity (PSR sort gate): low polyreactivity

QVQLVESGGGLVQAGGSLRLSCAASGIIFAYNVIGWSRPAPGKERELVAAIRWGGGSTYADSVKGRFTISRDNAKNTVYLQMNSLKPEDTAVYYCATRYRSYYAKYGYNYWGQGTQVTVSS
polyreactivity (PSR sort gate): high polyreactivity
